{"source": "patent US20210246218A1", "about": "(LYVGEN BIOPHARMA SUZHOU, published 2021)", "binders": {"B1": {"name": "Clone 3712-IgG1v (IgG1v/kappa) (antibody)", "heavy": "QVQLVQSGAEVKKPGASVKVSCKASGYTFAGFEMHWVRQAPGQGLEWMGAIDPKTGGTDYNQKFKDRVTMTRDTSISTAYMELSRLRSDDTAVYYCARDLGYFDVWGQGTLVTVSSASTKGPSVFPLAPSSKSTSGGTAALGCLVKDYFPEPVTVSWNSGALTSGVHTFPAVLQSSGLYSLSSVVTVPSSSLGTQTYICNVNHKPSNTKVDKKVEPKSCDKTHTCPPCPAPELLGPSVFLFPPKPKDTLMISRTPEVTCVVVDVEHEDPEVKFNWYVDGVEVHNAKTKPREEQYNSTYRVVSVLTVLHQDWLNGKEYKCKVSNKALPAPIEKTISKAKGQPREPQVYTLPPSREEMTKNQVSLTCLVKGFYPSDIAVEWESNGQPENNYKTTPPVLDSDGSFFLYSKLTVDKSRWQQGNVFSCSVMHEALHNHYTQKSLSLSPGK", "light": "DIQMTQSPSSLSASVGDRVTITCRASQDIRSNLNWYQQKPGGAVKLLIYYTSRLHSGVPSRFSGSGSGTDYTLTISSLQPEDFATYFCQQSEKLPRTFGGGTKVEIRRTVAAPSVFIFPPSDEQLKSGTASVVCLLNNFYPREAKVQWKVDNALQSGNSQESVTEQDSKDSTYSLSSTLTLSKADYEKHKVYACEVTHQGLSSPVTKSFNRGEC", "notes": "copies: 2 + 2"}}, "key": {"human B7-H3 protein": {"target": "T1, human B7-H3 protein (human, UniProt Q5ZPR3 29-461, limits assumed)", "T1 sequence (looked up)": "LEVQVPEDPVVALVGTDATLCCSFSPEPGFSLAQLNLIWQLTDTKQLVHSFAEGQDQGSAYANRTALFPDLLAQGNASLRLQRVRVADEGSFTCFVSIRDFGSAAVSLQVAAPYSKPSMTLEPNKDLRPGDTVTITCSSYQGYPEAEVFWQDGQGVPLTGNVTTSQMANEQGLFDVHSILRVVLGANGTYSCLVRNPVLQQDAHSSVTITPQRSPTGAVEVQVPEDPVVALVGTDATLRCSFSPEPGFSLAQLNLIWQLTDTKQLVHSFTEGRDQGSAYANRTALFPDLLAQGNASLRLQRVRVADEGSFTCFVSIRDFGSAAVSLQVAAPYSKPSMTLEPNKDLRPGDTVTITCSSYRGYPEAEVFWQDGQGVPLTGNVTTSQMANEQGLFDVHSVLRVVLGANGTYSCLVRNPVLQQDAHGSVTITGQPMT", "experiment": "ELISA, protein coated at 1 µg/mL", "method": "(§1) The plate was decanted and washed once; assay diluent was added at 200 μL/well. After a 1-hour incubation at room temperature, the plate was washed with PBST one time. […] These samples were added into the plate 50 μL/well. The plate was incubated 1 hour at room temperature and then washed three times with PBST. Goat anti-human IgG-H+L HRP-conjugated at 1:100,000 dilution or goat anti-mouse IgG (H+L) secondary antibody, HRP, at 1:50,000 dilution was added to the plate at 100 μL/well. The plate was incubated 1 hour at room temperature followed by washing with PBST four times. The TMB substrate solution was added 100 μL/well. The color was permitted to develop for 15 minutes and then 100 μL/well 2N H₂SO₄ was added to terminate the reaction. Absorbance at 450 nm and 620 nm was determined by a Tecan F200 Pro reader."}, "human B7-H4 protein": {"target": "T2, human B7-H4 protein (human, UniProt Q7Z7D3 29-258, limits assumed)", "T2 sequence (looked up)": "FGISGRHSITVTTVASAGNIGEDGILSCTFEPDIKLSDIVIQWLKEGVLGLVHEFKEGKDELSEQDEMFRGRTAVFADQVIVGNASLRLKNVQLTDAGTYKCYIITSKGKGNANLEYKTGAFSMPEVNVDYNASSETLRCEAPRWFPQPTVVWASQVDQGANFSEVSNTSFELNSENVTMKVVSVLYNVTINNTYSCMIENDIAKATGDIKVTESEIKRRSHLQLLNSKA", "experiment": "ELISA, protein coated at 1 µg/mL", "method": "as §1"}, "human CD20 protein": {"target": "T3, human CD20 protein (human, UniProt P11836 1-297, limits assumed)", "T3 sequence (looked up)": "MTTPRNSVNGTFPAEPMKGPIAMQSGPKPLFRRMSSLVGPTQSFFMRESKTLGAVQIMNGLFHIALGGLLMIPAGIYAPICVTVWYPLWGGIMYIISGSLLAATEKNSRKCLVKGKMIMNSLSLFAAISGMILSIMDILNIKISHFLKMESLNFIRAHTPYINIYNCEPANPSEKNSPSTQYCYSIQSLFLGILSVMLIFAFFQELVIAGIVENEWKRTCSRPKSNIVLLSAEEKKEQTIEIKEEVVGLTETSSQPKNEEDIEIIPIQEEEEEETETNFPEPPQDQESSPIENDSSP", "experiment": "ELISA, protein coated at 1 µg/mL", "method": "as §1"}, "human CD47 protein": {"target": "human CD47 protein (human, UniProt Q08722 19-139)", "sequence (Q08722 19-139 limits assumed)": "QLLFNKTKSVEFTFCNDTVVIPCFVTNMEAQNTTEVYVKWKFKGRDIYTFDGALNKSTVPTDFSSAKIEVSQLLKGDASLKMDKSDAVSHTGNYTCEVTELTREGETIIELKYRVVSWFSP", "experiment": "ELISA, protein coated at 1 µg/mL", "method": "as §1"}, "human CD27 protein": {"target": "human CD27 protein (human, UniProt P26842 21-192, limits assumed)", "sequence (P26842 21-192 limits assumed)": "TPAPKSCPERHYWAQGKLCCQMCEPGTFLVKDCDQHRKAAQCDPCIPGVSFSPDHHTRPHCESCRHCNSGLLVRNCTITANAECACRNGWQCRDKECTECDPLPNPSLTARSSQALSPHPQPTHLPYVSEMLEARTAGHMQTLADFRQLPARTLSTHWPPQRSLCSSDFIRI", "experiment": "ELISA, protein coated at 1 µg/mL", "method": "as §1"}, "Ly110": {"target": "T4, Ly110", "T4 chain": "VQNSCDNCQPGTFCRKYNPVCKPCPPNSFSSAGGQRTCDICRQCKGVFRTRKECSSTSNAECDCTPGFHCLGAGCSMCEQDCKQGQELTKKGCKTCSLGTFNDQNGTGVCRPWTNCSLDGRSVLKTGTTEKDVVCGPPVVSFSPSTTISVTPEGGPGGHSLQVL", "experiment": "ELISA, CD137 protein coated, clone 3712 titrated; sigmoid with a low plateau of about 0.45 (huCD137 about 1.5)", "method": "For the data shown in FIGS. 16C-D, chimeric CD137 receptor protein samples were diluted in DPBS to 5 μg/mL and then coated onto an ELISA plate (Corning, Catalog number: 9018, high binding) at 50 μL (0.25 μg) per well, and incubated at 4° C. overnight. The plate was decanted and washed once; assay diluent was added at 200 μL/well. After a 1-hour incubation at room temperature, the plate was washed with PBST one time. […] The plate was incubated 1 hour at room temperature and then washed three times with PBST. Goat anti-human IgG-H+L HRP-conjugated at 1:100,000 dilution or goat anti-mouse IgG (H+L) secondary antibody, HRP, 10 at 1:50,000 dilution was added to the plate at 100 μL/well. The plate was incubated 1 hour at room temperature followed by washing with PBST four times. The TMB substrate solution was added 100 μL/well. The color was permitted to develop for 15 minutes and then 100 μL/well 2N H2SO4 was added to terminate the reaction. Absorbance at 450 nm and 620 nm was determined by a Tecan F200 Pro reader."}}, "data": [{"binder": "B1", "values": [{"measurement": "binding result", "setting": "human B7-H3 protein", "value": "no binding (tested: 10 µg/mL and 1 µg/mL)"}, {"measurement": "binding result", "setting": "human B7-H4 protein", "value": "no binding (tested: 10 µg/mL and 1 µg/mL)"}, {"measurement": "binding result", "setting": "human CD20 protein", "value": "no binding (tested: 10 µg/mL and 1 µg/mL)"}, {"measurement": "binding result", "setting": "human CD47 protein", "value": "no binding (tested: 10 µg/mL and 1 µg/mL)"}, {"measurement": "binding result", "setting": "human CD27 protein", "value": "no binding (tested: 10 µg/mL and 1 µg/mL)"}, {"measurement": "EC50", "setting": "Ly110", "value": 0.0578, "unit": "µg/mL"}]}]}
